Test results: FireProtDB (doi:10.1073/pnas.0908565107)

B1: Alanine--glyoxylate aminotransferase, P21549 (parent)
chain: MASHKLLVTPPKALLKPLSIPNQLLLGPGPSNLPPRIMAAGGLQMIGSMSKDMYQIMDEIKEGIQYVFQTRNPLTLVISGSGHCALEAALVNVLEPGDSFLVGANGIWGQRAVDIGERIGARVHPMTKDPGGHYTLQEVEEGLAQHKPVLLFLTHGESSTGVLQPLDGFGELCHRYKCLLLVDSVASLGGTPLYMDRQGIDILYSGSQKALNAPPGTSLISFSDKAKKKMYSRKTKPFSFYLDIKWLANFWGCDDQPRMYHHTIPVISLYSLRESLALIAEQGLENSWRQHREAAAYLHGRLQALGLQLFVKDPALRLPTVTTVAVPAGYDWRDIVSYVIDHFDIEIMGGLGPSTGKVLRIGLLGCNATRENVDRVTEALRAALQHCPKKKL

Variants of: B1
Conditions: Homo sapiens; pH 7.4; Thermal; DSC; Potassium phosphate 100 mM; structure 1H0C; whole UniProt chain shown
For MASHKLLVTPPKALLKPLSIPNQLLLGPGPSNLPPRIMAAVGLQMIGSMSKDMYQIMDEIKEGIQYVFQTRNPLTLVISGSGHCALEAALVNVLEPGDSFLVGANGIWGQRAVDIGERIGARVHPMTKDPGGHYTLQEVEEGLAQHKPVLLFLTHGESSTGVLQPLDGFGELCHRYKCLLLVDSVASLGGTPLYMDRQGIDILYSGSQKALNAPPGTSLISFSDKAKKKMYSRKTKPFSFYLDIKWLANFWGCDDQPRMYHHTIPVISLYSLRESLALIAEQGLENSWRQHREAAAYLHGRLQALGLQLFVKDPALRLPTVTTVAVPAGYDWRDIVSYVIDHFDIEIMGGLGPSTGKVLRIGLLGCNATRENVDRVTEALRAALQHCPKKKL [G41V], the Tm was 58.3 °C and the “change of melting temperature, mutant - wild type (higher = more stable)” value was -4.1 °C.
